According to the Human Domainome abundance scans (Beltran et al. 2025):
± gives the uncertainty stated by the source.

B1: SAM and SH3 domain-containing protein 1, residues 630 to 700; numbered along this chain, O94885 (parent)
chain: GRPPQPKSVEDLLDRINLKEHMPTFLFNGYEDLDTFKLLEEEDLDELNIRDPEHRAVLLTAVELLQEYDSN

Variants of: B1
Test: abundance fitness (aPCA) (normalised: wild type 0, dead -1); higher = more abundant; growth selection in yeast, the domain comes from the species named
Details: Homo sapiens

| Variant | abundance fitness |
| --- | --- |
| GRPPQPKSVEDLLDRINLKEHMPTFLFNGYEDLDTFKLLTEEDLDELNIRDPEHRAVLLTAVELLQEYDSN [E40T] | 0.398 ± 0.035 |
| GRPPQPKSVEDLLDRINLKEHMPTFLFNGYEDLDTFKLLCEEDLDELNIRDPEHRAVLLTAVELLQEYDSN [E40C] | 0.186 ± 0.042 |
| GRPPQPKSVEDLLDRINLKEHMPTFLFNGYEDLDTFKLLMEEDLDELNIRDPEHRAVLLTAVELLQEYDSN [E40M] | -0.246 ± 0.056 |
| GRPPQPKSVEDLLDRINLKEHMPTFLFNGYEDLDTFKLLKEEDLDELNIRDPEHRAVLLTAVELLQEYDSN [E40K] | 0.347 ± 0.046 |
| GRPPQPKSVEDLLDRINLKEHMPTFLFNGYEDLDTFKLLFEEDLDELNIRDPEHRAVLLTAVELLQEYDSN [E40F] | -1.01 ± 0.089 |
| GRPPQPKSVEDLLDRINLKEHMPTFLFNGYEDLDTFKLLQEEDLDELNIRDPEHRAVLLTAVELLQEYDSN [E40Q] | 0.222 ± 0.049 |
| GRPPQPKSVEDLLDRINLKEHMPTFLFNGYEDLDTFKLLIEEDLDELNIRDPEHRAVLLTAVELLQEYDSN [E40I] | -0.431 ± 0.055 |
| GRPPQPKSVEDLLDRINLKEHMPTFLFNGYEDLDTFKLLGEEDLDELNIRDPEHRAVLLTAVELLQEYDSN [E40G] | 0.171 ± 0.044 |
| GRPPQPKSVEDLLDRINLKEHMPTFLFNGYEDLDTFKLLYEEDLDELNIRDPEHRAVLLTAVELLQEYDSN [E40Y] | -0.829 ± 0.069 |
| GRPPQPKSVEDLLDRINLKEHMPTFLFNGYEDLDTFKLLWEEDLDELNIRDPEHRAVLLTAVELLQEYDSN [E40W] | -0.933 ± 0.098 |
| GRPPQPKSVEDLLDRINLKEHMPTFLFNGYEDLDTFKLLNEEDLDELNIRDPEHRAVLLTAVELLQEYDSN [E40N] | 0.196 ± 0.041 |
| GRPPQPKSVEDLLDRINLKEHMPTFLFNGYEDLDTFKLLVEEDLDELNIRDPEHRAVLLTAVELLQEYDSN [E40V] | -0.088 ± 0.047 |
| GRPPQPKSVEDLLDRINLKEHMPTFLFNGYEDLDTFKLLREEDLDELNIRDPEHRAVLLTAVELLQEYDSN [E40R] | 0.337 ± 0.035 |
| GRPPQPKSVEDLLDRINLKEHMPTFLFNGYEDLDTFKLLPEEDLDELNIRDPEHRAVLLTAVELLQEYDSN [E40P] | -0.914 ± 0.075 |
| GRPPQPKSVEDLLDRINLKEHMPTFLFNGYEDLDTFKLLSEEDLDELNIRDPEHRAVLLTAVELLQEYDSN [E40S] | 0.252 ± 0.032 |
| GRPPQPKSVEDLLDRINLKEHMPTFLFNGYEDLDTFKLLDEEDLDELNIRDPEHRAVLLTAVELLQEYDSN [E40D] | 0.011 ± 0.057 |
| GRPPQPKSVEDLLDRINLKEHMPTFLFNGYEDLDTFKLLEFEDLDELNIRDPEHRAVLLTAVELLQEYDSN [E41F] | -0.971 ± 0.091 |
| GRPPQPKSVEDLLDRINLKEHMPTFLFNGYEDLDTFKLLEGEDLDELNIRDPEHRAVLLTAVELLQEYDSN [E41G] | -0.465 ± 0.07 |
| GRPPQPKSVEDLLDRINLKEHMPTFLFNGYEDLDTFKLLECEDLDELNIRDPEHRAVLLTAVELLQEYDSN [E41C] | -0.483 ± 0.067 |

| Variant | abundance fitness |
| --- | --- |
| GRPPQPKSVEDLLDRINLKEHMPTFLFNGYEDLDTFKLLEAEDLDELNIRDPEHRAVLLTAVELLQEYDSN [E41A] | -0.075 ± 0.048 |
| GRPPQPKSVEDLLDRINLKEHMPTFLFNGYEDLDTFKLLEDEDLDELNIRDPEHRAVLLTAVELLQEYDSN [E41D] | -0.419 ± 0.075 |
| GRPPQPKSVEDLLDRINLKEHMPTFLFNGYEDLDTFKLIEEEDLDELNIRDPEHRAVLLTAVELLQEYDSN [L39I] | 0.058 ± 0.041 |
| GRPPQPKSVEDLLDRINLKEHMPTFLFNGYEDLDTFKLNEEEDLDELNIRDPEHRAVLLTAVELLQEYDSN [L39N] | -0.851 ± 0.075 |
| GRPPQPKSVEDLLDRINLKEHMPTFLFNGYEDLDTFKLVEEEDLDELNIRDPEHRAVLLTAVELLQEYDSN [L39V] | -0.422 ± 0.049 |
| GRPPQPKSVEDLLDRINLKEHMPTFLFNGYEDLDTFKLHEEEDLDELNIRDPEHRAVLLTAVELLQEYDSN [L39H] | -0.812 ± 0.072 |
| GRPPQPKSVEDLLDRINLKEHMPTFLFNGYEDLDTFKLREEEDLDELNIRDPEHRAVLLTAVELLQEYDSN [L39R] | -0.861 ± 0.059 |
| GRPPQPKSVEDLLDRINLKEHMPTFLFNGYEDLDTFKLAEEEDLDELNIRDPEHRAVLLTAVELLQEYDSN [L39A] | -0.881 ± 0.068 |
| GRPPQPKSVEDLLDRINLKEHMPTFLFNGYEDLDTFKLKEEEDLDELNIRDPEHRAVLLTAVELLQEYDSN [L39K] | -0.928 ± 0.11 |
| GRPPQPKSVEDLLDRINLKEHMPTFLFNGYEDLDTFKLEEEEDLDELNIRDPEHRAVLLTAVELLQEYDSN [L39E] | -0.771 ± 0.1 |
| GRPPQPKSVEDLLDRINLKEHMPTFLFNGYEDLDTFKLSEEEDLDELNIRDPEHRAVLLTAVELLQEYDSN [L39S] | -0.818 ± 0.053 |
| GRPPQPKSVEDLLDRINLKEHMPTFLFNGYEDLDTFKLDEEEDLDELNIRDPEHRAVLLTAVELLQEYDSN [L39D] | -0.799 ± 0.081 |
| GRPPQPKSVEDLLDRINLKEHMPTFLFNGYEDLDTFKLMEEEDLDELNIRDPEHRAVLLTAVELLQEYDSN [L39M] | -0.319 ± 0.055 |
| GRPPQPKSVEDLLDRINLKEHMPTFLFNGYEDLDTFKLQEEEDLDELNIRDPEHRAVLLTAVELLQEYDSN [L39Q] | -0.892 ± 0.098 |
| GRPPQPKSVEDLLDRINLKEHMPTFLFNGYEDLDTFKLYEEEDLDELNIRDPEHRAVLLTAVELLQEYDSN [L39Y] | -0.929 ± 0.078 |
| GRPPQPKSVEDLLDRINLKEHMPTFLFNGYEDLDTFKLFEEEDLDELNIRDPEHRAVLLTAVELLQEYDSN [L39F] | -0.973 ± 0.079 |
| GRPPQPKSVEDLLDRINLKEHMPTFLFNGYEDLDTFKLGEEEDLDELNIRDPEHRAVLLTAVELLQEYDSN [L39G] | -0.812 ± 0.067 |
| GRPPQPKSVEDLLDRINLKEHMPTFLFNGYEDLDTFKLTEEEDLDELNIRDPEHRAVLLTAVELLQEYDSN [L39T] | -0.79 ± 0.059 |
| GRPPQPKSVEDLLDRINLKEHMPTFLFNGYEDLDTFKLWEEEDLDELNIRDPEHRAVLLTAVELLQEYDSN [L39W] | -1.19 ± 0.14 |
